# Experimental data taken from patent US20230399650.
# Numbering of substitutions follows the chain as printed.
# Legend:
# [1] = test system: T1, VapB^L12 (VapB of Shigella sonnei CS14, Q12L)
# T1 sequence: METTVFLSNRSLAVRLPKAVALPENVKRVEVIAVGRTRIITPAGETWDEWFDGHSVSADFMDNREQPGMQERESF
# [2] = test system: T2, VapB^Q12 (Shigella sonnei 53G wild-type VapB antitoxin)
# T2 sequence: T1 sequence with L12Q
# [3] = test system: T3, VapB^A12 (Shigella sonnei VapB, Q12A)
# T3 sequence: T1 sequence with L12A
# [4] = test system: VapBC hetero-octamer, VapB Q12A (VapBA12C) (Shigella sonnei); experiment: SPR; conditions: 25 C, 50 mM Tris pH 8.0, 150 mM NaCl; approximate
# [5] = test system: VapBC hetero-octamer, VapB Q12L (VapBL12C, CS14 allele) (Shigella sonnei); experiment: SPR; conditions: 25 C, 50 mM Tris pH 8.0, 150 mM NaCl; traces not at equilibrium; methods state chip duplex SH167 annealed with SH181 (SH181 printed is operator site 2 sequence)
Substance,degradation of VapB by Lon in the presence of long-chain polyphosphate [1],degradation of VapB by Lon in the presence of operator DNA or control DNA [1],"degradation of VapB by Lon, in vitro proteolysis over four hours, SDS-PAGE [1]","degradation of VapB by Lon, in vitro proteolysis with and without ATP, SDS-PAGE [1]","degradation after 4 hours, in the presence of control DNA [2]","degradation after 4 hours, without DNA [2]",degradation of VapB by Lon in the presence of control DNA [2],degradation of VapB by Lon in the presence of long-chain polyphosphate [2],degradation of VapB by Lon in the presence of operator DNA [2],"degradation of VapB by Lon, in vitro proteolysis over four hours, SDS-PAGE [2]","degradation of VapB by Lon, in vitro proteolysis with and without ATP, SDS-PAGE [2]",degradation of VapB by Lon in the presence of long-chain polyphosphate [3],degradation of VapB by Lon in the presence of operator DNA or control DNA [3],"degradation of VapB by Lon, in vitro proteolysis with and without ATP, SDS-PAGE [3]","degradation of VapB by Lon, in vitro proteolysis, SDS-PAGE [3]",binding signal (fold lower affinity than VapBQ12C) [4],binding signal (fold lower affinity than VapBQ12C) [5]
"Shigella Lon protease, hexameric (Lon6)",significantly enhanced Lon degradation of both VapB^L12 and VapB^A12,neither operator DNA nor control DNA affect Lon degradation of VapB^L12 or VapB^A12,no significant difference in the degradation of VapB^Q12 and VapB^L12 by Lon protease over the course of assays,VapB degradation by Lon protease is ATP dependent,31% vs 55% degradation after 4 hours,31% vs 55% degradation after 4 hours,significant degradation of VapB^Q12 was observed within two hours,Polyphosphate significantly reduced Lon degradation of VapB^Q12,virtually no degradation of VapB^Q12 over the course of assays,no significant difference in the degradation of VapB^Q12 and VapB^L12 by Lon protease over the course of assays,VapB degradation by Lon protease is ATP dependent,significantly enhanced Lon degradation of both VapB^L12 and VapB^A12,neither operator DNA nor control DNA affect Lon degradation of VapB^L12 or VapB^A12,VapB degradation by Lon protease is ATP dependent,after two hours we observed that VapB^A12 was degraded significantly more than VapB^L12,–,–
"ATCATAAACGTATATCCCTTTGACATATCCCG (double strand) [vapBC operator site 1, biotinylated for SPR (SH180 printed)]",–,–,–,–,–,–,–,–,–,–,–,–,–,–,–,10,4
